# Source: article PMC11417369, “DNA sequence and chromatin differentiate sequence-specific transcription factor binding in the human malaria parasite Plasmodium falciparum”
# Target: AP2-I D3 (Plasmodium falciparum, UniProt Q8IJW6 910-1027)
# Test: gcPBM; about 25 ug protein; PBS, 1% milk, 0.2 mg/ml BSA, salmon testes DNA, 0.03% Triton X-100
# Settings: tags: N-terminal GST (pGEX-4T-1), kept; label: surface-attached array probe
row,Binder,binding signal
1,GTGCAC_site10551 (dsDNA) DNA 1: ATATATAAAAATTAGGTGCATTAAATTAAAATATAT DNA 2: ATATATTTTAATTTAATGCACCTAATTTTTATATAT,"12 ln median PBM intensity, better of two orientations"
2,GTGCAC_site10279 (dsDNA) DNA 1: GCCAATAAAGATGTGGTGCATTATATATATATATAT DNA 2: ATATATATATATATAATGCACCACATCTTTATTGGC,"12.1 ln median PBM intensity, better of two orientations"
3,GTGCAC_site9564 (dsDNA) DNA 1: GAAAATTTAAAAAGAGTGCATTATATGTTTGAATAT DNA 2: ATATTCAAACATATAATGCACTCTTTTTAAATTTTC,"12 ln median PBM intensity, better of two orientations"
4,GTGCAC_site10494 (dsDNA) DNA 1: AATATATAGGAAAAAGTGCAATAAATGAACAAAATA DNA 2: TATTTTGTTCATTTATTGCACTTTTTCCTATATATT,"11.3 ln median PBM intensity, better of two orientations"
5,GTGCAC_site10062 (dsDNA) DNA 1: TCTATTTTCTTATGAATGCACTAATTTATAAAACGT DNA 2: ACGTTTTATAAATTAGTGCATTCATAAGAAAATAGA,"10.8 ln median PBM intensity, better of two orientations"
6,GTGCAC_site10007 (dsDNA) DNA 1: TTTCTTTTTTCTTCAGTGCATTAAAATTAACAAAAG DNA 2: CTTTTGTTAATTTTAATGCACTGAAGAAAAAAGAAA,"12 ln median PBM intensity, better of two orientations"
7,GTGCAC_site9995 (dsDNA) DNA 1: AAAGGAAAAATCCAAGTGCATTATTATTTTCACAAA DNA 2: TTTGTGAAAATAATAATGCACTTGGATTTTTCCTTT,"11.4 ln median PBM intensity, better of two orientations"
8,GTGCAC_site9417 (dsDNA) DNA 1: TAATATTATTTTTCAGTGCAATATAACCTTAGAATT DNA 2: AATTCTAAGGTTATATTGCACTGAAAAATAATATTA,"11.3 ln median PBM intensity, better of two orientations"
9,GTGCAC_site10757 (dsDNA) DNA 1: TATTAATTTCGGGAAGTGCATTATGTTTATAGAATA DNA 2: TATTCTATAAACATAATGCACTTCCCGAAATTAATA,"11.7 ln median PBM intensity, better of two orientations"
10,GTGCAC_site10703 (dsDNA) DNA 1: TTTTTAATTTCAATGGTGCAGTAATAATATAATAGT DNA 2: ACTATTATATTATTACTGCACCATTGAAATTAAAAA,"12 ln median PBM intensity, better of two orientations"
11,GTGCAC_site9974 (dsDNA) DNA 1: ATATGAAGTTATATAGTGCACATGTACAACCAAATC DNA 2: GATTTGGTTGTACATGTGCACTATATAACTTCATAT,"11.4 ln median PBM intensity, better of two orientations"
12,GTGCAC_site9873 (dsDNA) DNA 1: CCCTCCCCATGTTTAGTGCAAAAATATTTGAAATTG DNA 2: CAATTTCAAATATTTTTGCACTAAACATGGGGAGGG,"10.9 ln median PBM intensity, better of two orientations"
13,GTGCAC_site10289 (dsDNA) DNA 1: TTTAAAATACAGAAGGTGCATTTAACATATTTGTAT DNA 2: ATACAAATATGTTAAATGCACCTTCTGTATTTTAAA,"11.6 ln median PBM intensity, better of two orientations"
14,GTGCAC_site9746 (dsDNA) DNA 1: TATAATTAATTAGAAGTGCATTAGGTAACAACTGTC DNA 2: GACAGTTGTTACCTAATGCACTTCTAATTAATTATA,"11.5 ln median PBM intensity, better of two orientations"
15,GTGCAC_site10132 (dsDNA) DNA 1: AGTGTGTGTAATAAAGTGCATTAAAAATGACACGTA DNA 2: TACGTGTCATTTTTAATGCACTTTATTACACACACT,"12 ln median PBM intensity, better of two orientations"
16,GTGCAC_site9804 (dsDNA) DNA 1: TCAAAAGAATAATTGGTGCAAATTATATAATATAAT DNA 2: ATTATATTATATAATTTGCACCAATTATTCTTTTGA,"10.8 ln median PBM intensity, better of two orientations"
17,GTGCAC_site10697 (dsDNA) DNA 1: AATATTTCTCATTTTGTGCACTGAAAAATGTAATAT DNA 2: ATATTACATTTTTCAGTGCACAAAATGAGAAATATT,"11 ln median PBM intensity, better of two orientations"
18,GTGCAC_site10781 (dsDNA) DNA 1: ACATTTTTGGTTTTAGTGCAATATGAATTATTTTAT DNA 2: ATAAAATAATTCATATTGCACTAAAACCAAAAATGT,"11 ln median PBM intensity, better of two orientations"
19,GTGCAC_site10332 (dsDNA) DNA 1: ATTACATTAATAAGAGTGCATTATATAAGTTTTATG DNA 2: CATAAAACTTATATAATGCACTCTTATTAATGTAAT,"12.1 ln median PBM intensity, better of two orientations"
20,GTGCAC_site10322 (dsDNA) DNA 1: TTTTTTTTTTTGTGAGTGCACGTATGAAGAGAAAAA DNA 2: TTTTTCTCTTCATACGTGCACTCACAAAAAAAAAAA,"11.2 ln median PBM intensity, better of two orientations"
21,GTGCAC_site9852 (dsDNA) DNA 1: ATAATATATAATATAGTGCATTATTTATTAATTAAT DNA 2: ATTAATTAATAAATAATGCACTATATTATATATTAT,"12 ln median PBM intensity, better of two orientations"
22,GTGCAC_site9926 (dsDNA) DNA 1: GCAGCAGCATTTTCAGTGCATTATTATATTGTTCAT DNA 2: ATGAACAATATAATAATGCACTGAAAATGCTGCTGC,"11.6 ln median PBM intensity, better of two orientations"

row,Binder,binding signal
1,GTGCAC_site9462 (dsDNA) DNA 1: AACTGTACAATTTTTGTGCACAATAATTATTAATAT DNA 2: ATATTAATAATTATTGTGCACAAAAATTGTACAGTT,"11.3 ln median PBM intensity, better of two orientations"
2,GTGCAC_site10763 (dsDNA) DNA 1: AGGATAAAAGTTATGGTGCATTAACCTATTTAAATA DNA 2: TATTTAAATAGGTTAATGCACCATAACTTTTATCCT,"12.1 ln median PBM intensity, better of two orientations"
3,GTGCAC_site9443 (dsDNA) DNA 1: ACCATATATTAAAAAGTGCATTAAATATATAAATAT DNA 2: ATATTTATATATTTAATGCACTTTTTAATATATGGT,"12 ln median PBM intensity, better of two orientations"
4,GTGCAC_site9938 (dsDNA) DNA 1: GAATTATAAATTATAGTGCATAAAATTATGGCATAA DNA 2: TTATGCCATAATTTTATGCACTATAATTTATAATTC,"10.8 ln median PBM intensity, better of two orientations"
5,GTGCAC_site9607 (dsDNA) DNA 1: TATTCAGGTCCAATGGTGCAATATATTTTTGTAATA DNA 2: TATTACAAAAATATATTGCACCATTGGACCTGAATA,"12 ln median PBM intensity, better of two orientations"
6,GTGCAC_site10087 (dsDNA) DNA 1: TGTCACTACAAATGAGTGCATTAAATAATTTGGAAA DNA 2: TTTCCAAATTATTTAATGCACTCATTTGTAGTGACA,"12 ln median PBM intensity, better of two orientations"
7,GTGCAC_site9970 (dsDNA) DNA 1: ACTGTAATATTGAAAGTGCATTAAAGTGTATATTAT DNA 2: ATAATATACACTTTAATGCACTTTCAATATTACAGT,"12 ln median PBM intensity, better of two orientations"
8,GTGCAC_site10102 (dsDNA) DNA 1: TATATTTATATATTAGTGCACTTTTTGTTAATTTTT DNA 2: AAAAATTAACAAAAAGTGCACTAATATATAAATATA,"11.8 ln median PBM intensity, better of two orientations"
9,GTGCAC_site10266 (dsDNA) DNA 1: TCTTAAAATATATAGGTGCAAAAAAAAAAAAAAAAA DNA 2: TTTTTTTTTTTTTTTTTGCACCTATATATTTTAAGA,"10.9 ln median PBM intensity, better of two orientations"
10,GTGCAC_site9803 (dsDNA) DNA 1: GTAGTAATAAATCTAGTGCATTATATATAACAAAAA DNA 2: TTTTTGTTATATATAATGCACTAGATTTATTACTAC,"12 ln median PBM intensity, better of two orientations"
11,GTGCAC_site9773 (dsDNA) DNA 1: TTAAAAATTATATAAGTGCATTAATATTTAGAACAA DNA 2: TTGTTCTAAATATTAATGCACTTATATAATTTTTAA,"12 ln median PBM intensity, better of two orientations"
12,GTGCAC_site10447 (dsDNA) DNA 1: TAATGAGCGCTTGTAGTGCATTATATTCAAAAATAT DNA 2: ATATTTTTGAATATAATGCACTACAAGCGCTCATTA,"12 ln median PBM intensity, better of two orientations"
13,GTGCAC_site10150 (dsDNA) DNA 1: TTTCCCTCAAATAAAGTGCATTATGATTTTAATTTA DNA 2: TAAATTAAAATCATAATGCACTTTATTTGAGGGAAA,"12 ln median PBM intensity, better of two orientations"
14,GTGCAC_site10204 (dsDNA) DNA 1: GGAAAATACATTCCAGTGCATTAATTTATTCAACGT DNA 2: ACGTTGAATAAATTAATGCACTGGAATGTATTTTCC,"11.8 ln median PBM intensity, better of two orientations"
15,GTGCAC_site10692 (dsDNA) DNA 1: ATTATTTATATTATGGTGCATAATTTTGGGTTTCTT DNA 2: AAGAAACCCAAAATTATGCACCATAATATAAATAAT,"11.6 ln median PBM intensity, better of two orientations"
16,GTGCAC_site9491 (dsDNA) DNA 1: AATAATAAAATAAAAGTGCATTAATTATAATTCTTT DNA 2: AAAGAATTATAATTAATGCACTTTTATTTTATTATT,"11.9 ln median PBM intensity, better of two orientations"
17,GTGCAC_site10160 (dsDNA) DNA 1: ATTCATTTACCAATGGTGCAATATATTTTTATAATG DNA 2: CATTATAAAAATATATTGCACCATTGGTAAATGAAT,"12 ln median PBM intensity, better of two orientations"
18,GTGCAC_site10687 (dsDNA) DNA 1: TATATATATTATATAGTGCATTGAAGAAGGGGATTT DNA 2: AAATCCCCTTCTTCAATGCACTATATAATATATATA,"11.1 ln median PBM intensity, better of two orientations"
19,GTGCAC_site10233 (dsDNA) DNA 1: TTTTTTAAATTTAAAGTGCATTATTATATATTTGTA DNA 2: TACAAATATATAATAATGCACTTTAAATTTAAAAAA,"12 ln median PBM intensity, better of two orientations"
20,GTGCAC_site9463 (dsDNA) DNA 1: ATTAAAAAATCCATAGTGCACTACGATAGGTTCCGA DNA 2: TCGGAACCTATCGTAGTGCACTATGGATTTTTTAAT,"12.1 ln median PBM intensity, better of two orientations"
21,GTGCAC_site10028 (dsDNA) DNA 1: ATTATAATTACTCTAGTGCATTATAAATATGAATAA DNA 2: TTATTCATATTTATAATGCACTAGAGTAATTATAAT,"12 ln median PBM intensity, better of two orientations"
22,GTGCAC_site10036 (dsDNA) DNA 1: TCATAGGGGTAGAAGGTGCAATAAAAAAGAAGAAAA DNA 2: TTTTCTTCTTTTTTATTGCACCTTCTACCCCTATGA,"12 ln median PBM intensity, better of two orientations"
